Target: T1, mouse DR5 (Mus musculus (4T1: BALB/c; MC38: …, UniProt Q9QZM4)
T1 construct: mouse DR5, endogenous on the surface of 4T1 and MC38 cells; also called muDR5; murine DR5; source: endogenous, on murine 4T1 and MC38 cells
Experiment: flow cytometry on cells; antibody on murine 4T1 and MC38 cells, FACS histograms
Conditions: one partner purified

T1 sequence (Q9QZM4 53-381): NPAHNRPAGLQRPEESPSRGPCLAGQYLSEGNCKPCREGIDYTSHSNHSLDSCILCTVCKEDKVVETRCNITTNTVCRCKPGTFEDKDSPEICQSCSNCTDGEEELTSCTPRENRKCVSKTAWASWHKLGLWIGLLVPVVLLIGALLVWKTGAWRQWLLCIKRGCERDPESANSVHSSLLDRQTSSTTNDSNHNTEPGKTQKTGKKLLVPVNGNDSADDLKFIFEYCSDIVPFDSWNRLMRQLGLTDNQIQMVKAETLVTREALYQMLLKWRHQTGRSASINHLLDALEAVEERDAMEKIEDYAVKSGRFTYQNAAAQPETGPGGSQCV

B1: MD5‐1 (antibody, V domains shown)
VH: QIQLQESGPGLVKPAQSLSLTCSITGFPITAGGYWWTWIRQFPGQKLEWMGYIYSSGSTNYNPSIKSRISITRDTAKNQFFLQLNSVTTEEDTAIYYCARAGTSYSGFFDSWGQGTLVTVSS
VL: DIQVTQSPSLLSASFGDKVTINCLVTQDITYYLSWYQQKSGQPPTLLIYNGNSLQSGVPSRFSGQYSGRTFTLSLSSLEPEDAGTYYCLQHYSVPFTFGGGTRLEIK
notes: heavy chain of MD5‐1; light chain of MD5‐1; for efficacy studies it is said to carry IgG1 KO‐Fc and S267E mutations; also called anti‐mouse DR5 antibody (MD5‐1); murine DR5 agonist MD5‐1
- binding result: binds

Source: publication PMC7933954 (EMBO Molecular Medicine, 2021)
